Assay results as given in article PMC4005694.

Tests used:
[1] = biological target: Methanothermobacter thermautotrophicus 70S ribosome (M. thermautotrophicus (endogenous in M. thermautotrophicus cells)) (UniProt O26110); assay: MST; fluorescently labelled (DY-495) 70S, 50S or 30S kept constant, unlabelled aaRS or control protein titrated (mSerRS 2.5 nM-40.8 µM, ArgRS 5.6 nM-91.9 µM on 70S); 20 mM Tris-HCl pH 7.5, 150 mM NaCl, 6 mM MgCl2, 1 mM DTT, 0.05% Tween-20, 0.4 mg/ml BSA; hyperbolic fit
[2] = biological target: Methanothermobacter thermautotrophicus large ribosomal subunit (M. thermautotrophicus (endogenous in M. thermautotrophicus cells)) (UniProt O26110); assay: as above
Methanothermobacter thermautotrophicus large ribosomal subunit (M. thermautotrophicus (endogenous in M. thermautotrophicus cells)), sequence (O26110 whole entry, looked up, tested part not stated): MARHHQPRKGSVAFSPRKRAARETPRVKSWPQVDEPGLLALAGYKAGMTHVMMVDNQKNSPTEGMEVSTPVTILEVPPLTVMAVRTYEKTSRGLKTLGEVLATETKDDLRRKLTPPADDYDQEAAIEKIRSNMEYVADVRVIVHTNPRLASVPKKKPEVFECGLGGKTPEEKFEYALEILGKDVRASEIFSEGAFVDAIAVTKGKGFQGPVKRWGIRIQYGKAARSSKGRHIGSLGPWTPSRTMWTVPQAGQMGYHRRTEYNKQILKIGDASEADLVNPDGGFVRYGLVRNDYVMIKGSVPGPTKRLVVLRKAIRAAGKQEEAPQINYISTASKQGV

Methanothermobacter thermautotrophicus 70S ribosome (M. thermautotrophicus (endogenous in M. thermautotrophicus cells)), sequence (O26110 whole entry, looked up): as the sequence (O26110 whole entry, looked up, tested part not stated) above

| Binder | Kd [1] | Kd [2] |
| --- | --- | --- |
| Methanothermobacter thermautotrophicus arginyl-tRNA synthetase (enzyme) MFRYIEKEARDSITAALEKLGIKVPPEIKLEEPPNPQLGDLASTVSFELAGKLRRAPIEITADIMSVIETPEIFETIESKGPYINFFVDYGRFSSRLLESIQDDYGSHPPRDERVILEHTSANPNGPLHIGHIRNAIIGDSLARILRMAGYDVETQYYVNDMGRQIAMIVWGLLNLDGDLEDYPGDKMDHRVGKLYFEVNQRLKENPGIRDEVDELIRKYEAGENEELFRKVVEYCLSGMEETMKRLHVHHDRFVWEGQFVRDGTVDRVIESLRKTGYTGENDVLYLDLEEFGLEKELVLTRSDGTSLYSTRDIAYHLQKSEEGDVIIDVLGSDHKLAAEQVGIAVELLGGKRPEVIFYEFITLPEGSMSTRRGVFISVDELMDEAHSRALHEVKKRRDLPDDVADDIAESIGNGAIRYYIARLSPEKHIVFRWDDALSFERGCASIQYAHARACKLLEKASFTGEEDIEDGWKPEGDERELVRLLARFPVVVEESALARRVHPVAQYAQDLANTFNSFYRSTPVIGSDFEGARLRLVDSVRKTLRNALNLLGIHAPETM | 4.7 µM | – |
| Methanothermobacter thermautotrophicus methanogenic-type seryl-tRNA synthetase (enzyme) MKFKLKGIIKLSKEVPGIEDDLEKFFTEAESDILRRGVPEGQEHEAAHIKSWRLEGDTLHIEMESGRRVRAHDGLLRLKKPLGQLLGPKYRVGVRGISVTDYTMEMKAPGVSGIPSLAELPFVEDAAITDGTIMVRFQPLEESDLRKHVFDRVVKHARTLVESSDDLTVQVTRATPGEIIARSRSRDFFFEGDPTEEAMRLGWVKKFPGRGQWFYGPKITALHRALEEFFIERIVKPLGFVECLFPKLIPLDIMNKMRYLEGLPEGMYYCSAPSRDPETFEEFKNELIINREVPMDLLKRGIKDPGYVIAPAQCEPFYQFLSHEVVSAEDLPVKFFDRSGWTYRWEAGGSKGLDRVHEFQRVELVWLAEPGETEEIRDRTVELSHDAADELELEWYTEVGDDPFYLEGRKVEERGIEFPDVPKYEMRLSLPGREKGVAVVSANVHGTHFIEGFSIREARNLNIWTGCTGIGLSRWIYGFLAQKGFETGNWPDFIGERVEGVENPRIITWPRQD | 1.25 µM | 1.29 µM |
